Results published in publication PMC4338599 (Science (New York, N.Y.), 2015).

Biological target: the molecule itself
Assay: native MS

B1: PAXX residues 1-145 (PAXX^1-145) (domain or fragment)
chain: MDPLSPPLCTLPPGPEPPRFVCYCEGEESGEGDRGGFNLYVTDAAELWSTCFTPDSLAALKARFGLSAAEDITPRFRAACEQQAVALTLQEDRASLTLSGGPSALAFDLSKVPGPEAAPRLRALTLGLAKRVWSLERRLAAAEET
stoichiometry N: 2
